Paper PMC6912793

Biological target: recombinant human integrin α5β1 (human) (UniProt P08648)
Chain of UniProt P08648 (P08648 42-1049, chain 1 of 2): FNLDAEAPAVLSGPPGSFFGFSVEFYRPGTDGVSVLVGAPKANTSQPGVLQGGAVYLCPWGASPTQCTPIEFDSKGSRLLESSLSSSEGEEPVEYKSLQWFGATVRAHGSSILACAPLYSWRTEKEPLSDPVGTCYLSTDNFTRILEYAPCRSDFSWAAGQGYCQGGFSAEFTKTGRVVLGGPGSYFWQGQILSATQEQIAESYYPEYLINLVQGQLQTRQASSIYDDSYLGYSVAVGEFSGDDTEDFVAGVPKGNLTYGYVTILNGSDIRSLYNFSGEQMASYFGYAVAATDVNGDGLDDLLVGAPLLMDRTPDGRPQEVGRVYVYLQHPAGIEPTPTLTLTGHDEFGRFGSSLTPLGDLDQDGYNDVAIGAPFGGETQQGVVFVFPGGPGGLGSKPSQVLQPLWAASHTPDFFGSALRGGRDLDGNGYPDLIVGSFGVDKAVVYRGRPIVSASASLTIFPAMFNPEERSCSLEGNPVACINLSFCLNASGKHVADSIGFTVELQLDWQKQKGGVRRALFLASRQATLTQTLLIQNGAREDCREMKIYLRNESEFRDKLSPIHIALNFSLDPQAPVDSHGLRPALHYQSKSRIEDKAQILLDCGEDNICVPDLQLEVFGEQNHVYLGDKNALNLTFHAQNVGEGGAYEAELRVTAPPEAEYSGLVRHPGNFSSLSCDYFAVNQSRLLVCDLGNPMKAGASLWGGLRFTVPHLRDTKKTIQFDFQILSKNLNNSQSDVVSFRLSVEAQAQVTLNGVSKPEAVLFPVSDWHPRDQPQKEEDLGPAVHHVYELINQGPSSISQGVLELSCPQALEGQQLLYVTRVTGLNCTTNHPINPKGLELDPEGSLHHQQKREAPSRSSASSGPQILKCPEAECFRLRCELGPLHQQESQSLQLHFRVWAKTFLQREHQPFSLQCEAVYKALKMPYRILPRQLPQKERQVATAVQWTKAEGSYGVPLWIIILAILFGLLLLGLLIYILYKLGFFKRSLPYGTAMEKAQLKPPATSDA
Chain of UniProt P08648 (P05556 21-728, chain 2 of 2, further chain): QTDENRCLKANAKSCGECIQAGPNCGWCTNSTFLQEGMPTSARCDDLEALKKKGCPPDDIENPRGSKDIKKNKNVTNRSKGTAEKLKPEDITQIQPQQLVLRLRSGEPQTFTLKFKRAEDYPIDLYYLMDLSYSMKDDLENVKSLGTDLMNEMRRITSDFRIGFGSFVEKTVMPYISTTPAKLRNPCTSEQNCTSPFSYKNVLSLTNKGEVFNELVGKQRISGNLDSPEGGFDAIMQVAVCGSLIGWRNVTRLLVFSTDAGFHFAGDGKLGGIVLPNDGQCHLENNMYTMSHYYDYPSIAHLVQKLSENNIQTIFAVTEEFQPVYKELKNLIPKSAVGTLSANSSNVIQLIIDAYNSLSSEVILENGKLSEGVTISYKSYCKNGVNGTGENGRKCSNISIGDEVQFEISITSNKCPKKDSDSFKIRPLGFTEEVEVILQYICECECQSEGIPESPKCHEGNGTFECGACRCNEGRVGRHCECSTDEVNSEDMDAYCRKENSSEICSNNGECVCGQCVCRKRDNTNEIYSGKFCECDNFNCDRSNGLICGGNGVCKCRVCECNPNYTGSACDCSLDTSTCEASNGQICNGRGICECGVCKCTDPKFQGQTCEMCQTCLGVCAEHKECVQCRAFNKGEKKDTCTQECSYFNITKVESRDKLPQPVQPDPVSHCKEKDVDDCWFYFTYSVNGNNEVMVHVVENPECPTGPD

Substance: native PSG1 (pregnancy-specific glycoprotein 1) purified from the serum of pregnant women (from UniProt P11464 35-419) (natural protein)
- reduction of adhesion of HTR8/SVneo cells to native PSG1 (30 μg/mL coated) by a neutralizing antibody to integrin α5, 21% oxygen: 45%
- reduction of adhesion of HTR8/SVneo cells to native PSG1 (30 μg/mL coated) by a neutralizing antibody to integrin β1, 21% oxygen: 90%
